Target: T1, Extra Domain-A (ED-A) isoform of fibronectin in bone marrow biopsies of AML patients (human, UniProt P02751 1722-1811, limits assumed)
T1 construct: The antigen was not used as an isolated protein; It is the native protein in patient tissue sections; also called A-FN; EDA domain of fibronectin
Assay: immunohistochemistry, bone marrow biopsies of two patients with extramedullary AML, biotinylated SIP 2 ug/ml
Experimental: For immunohistochemistry, biotinylated antibodies were used in small immunoprotein format (SIP) under identical conditions (2 μg/ml). Aliquots were prepared from a single batch of antibodies, frozen and used only once to ensure reproducibility of immunohistochemical stainings. Frozen tissue samples were stored at −80° C. Sections of 10 μm thickness were fixed in chilled acetone, rehydrated in TBS buffer (50 mM Tris, 100 mM NaCl, 0.001% Aprotinin, pH 7.4) and blocked with 20% fetal calf serum in TBS. The antibodies were added onto the sections in a final concentration of 2 μg/mL in 3% bovine serum albumin (BSA)/TBS solution and incubated for one hour. After washing in TBS, bound antibodies were detected with streptavidin-biotinylated alkaline phosphatase complex (Biospa, Milan, Italy) in TBS 3% BSA+2 mM MgCl₂. The Fast Red substrate (Sigma) was used for detection of phosphatase activity. Sections were counterstained with Gill's hematoxylin No. 2 (Sigma) and mounted with Glycergel mounting medium (Dako, Glostrup, Denmark).

T1 sequence (P02751 1722-1811 limits assumed): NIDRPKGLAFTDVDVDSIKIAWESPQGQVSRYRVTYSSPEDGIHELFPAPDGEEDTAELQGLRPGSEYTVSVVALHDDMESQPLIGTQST

binding result: binds
B1: F8-SIP (V5L/K18R) (antibody)
chain: EVQLLESGGGLVQPGGSLRLSCAASGFTFSLFTMSWVRQAPGKGLEWVSAISGSGGSTYYADSVKGRFTISRDNSKNTLYLQMNSLRAEDTAVYYCAKSTHLYLFDYWGQGTLVTVSSGGGGSGGGSGGGGGEIVLTQSPGTLSLSPGERATLSCRASQSVSMPFLAWYQQKPGQAPRLLIYGASSRATGIPDRFSGSGSGTDFTLTISRLEPEDFAVYYCQQMRGRPPTFGQGTKVEIKSGGSGGPRAAPEVYAFATPEWPGSRDKRTLACLIQNFMPEDISVQWLHNEVQLPDARHSTTQPRKTKGSGFFVFSRLEVTRAEWEQKDEFICRAVHEAASPSQTVQRAVSVNPESSRRGGC
modifications: biotinylated (sites not given)
notes: Human monoclonal mini-immunoglobulin (small immunoprotein, SIP); It was used biotinylated at 2 ug/ml on tissue sections; also called F8 (V5L/K18R)
